{"source": "paper PMC8346289", "about": "(Journal of medicinal chemistry, 2014)", "proteins": {"B1": {"name": "K47A mutant of human thymidylate synthase (enzyme)", "chain": "MPVAGSELPRRPLPPAAQERDAEPRPPHGELQYLGQIQHILRCGVRADDRTGTGTLSVFGMQARYSLRDEFPLLTTKRVFWKGVLEELLWFIKGSTNAKELSSKGVKIWDANGSRDFLDSLGFSTREEGDLGPVYGFQWRHFGAEYRDMESDYSGQGVDQLQRVIDTIKTNPDDRRIIMCAWNPRDLPLMALPPCHALCQFYVVNSELSCQLYQRSGDMGLGVPFNIASYALLTYMIAHITGLKPGDFIHTLGDAHIYLNHIEPLKIQLQREPRPFPKLRILRKVEKIDDFKAEDFQIEGYNPHPTIKMEMAV"}}, "target": "the molecule itself", "test": "crystal structure", "data": [{"protein": "B1", "values": [{"measurement": "binding result", "result": "binds"}]}]}
